According to patent publication EP2769989A1:

Biological target: AC133-positive and CD3-positive cells (target of the printed Kd not stated)
Assay: flow cytometry on cells, MFI against antibody concentration, detected with anti-c-Myc mAb and PE anti-mouse F(ab')2; target cell line for this Kd not stated

B1: AC133xCD3-diabody (bispecific single-chain antibody, VHAC133-G4S Linker-VLCD3-(G4S)3 Linker-VHCD3-G4S Linker-VLAC133) (bispecific antibody)
chain: QVQLQQSGAELVRPGASVKLSCKASGYTFSDFEMHWVKQTPVHGLEWIGDIDPGTGDTAYNLKFKGKATLTTDKSSSTAYMELRSLTSEDSAVYYCTLGAFVYWGQGTLVTVSGGGGSDIQMTQSPSSLSASVGDRVTITCRASQDIRNYLNWYQQKPGKAPKLLIYYTSRLESGVPSRFSGSGSGTDYTLTISSLQPEDFATYYCQQGNTLPWTFGQGTKVEIKGGGGSGGGGSGGGGSEVQLVESGGGLVQPGGSLRLSCAASGYSFTGYTMNWVRQAPGKGLEWVALINPYKGVSTYNQKFKDRFTISVDKSKNTAYLQMNSLRAEDTAVYYCARSGYYGDSDWYFDVWGQGTLVTVSSGGGGSDVVVTQTPLSLPVSFGDQVSISCRSSQSLANSYGNTYLSWYLHKPGQSPQLLIYGISNRFSGVPDRFSGSGSGTDFTLKISTIKPEDLGMYYCLQGTHQPYTFGGGTKLEIKRADAAA
Question: For B1, which Kd is on record?
Answer: Its Kd is 6.4 nM.
